# Experiment: soluble on expression in E. coli; label from the status in PepcDB or PDB records
row,Sequence,soluble on expression in E. coli
1,MGSDKIHHHHHHMRLFKSLKNPKKTDAKLPKKSSGLNNRAAIGIDIDQHSIKMVQLSGRSLNQIQLEKYVIAKLPKNIIQGNKVQNYDQLVTYLQQAYAKLGTSCKNIVASVPQNLATIEQLTYTAKDAELDLQGFVESSISEASSISLEEANYDYQVLSQSAVGEAVLSVASRKDEIEPLIDAFNAAGMKLSALDVDIFGQYNAYALWINHFAPELADEKVAIFGVYAAQTYALVIQDGKILYKQETSVSEEQLNQLIQRTYQVTAEKAEEIINSPQKPSDYQESVANYFNQQITQEIQRVLQFYYTTQTADDMTDIKHILLTGEAVRQKGIAQTVASQTNADVQCVHPARYFANDLKTDEQQFELDAPTLTKAFGLAVRGL,not soluble
2,MPKISSRDGGRPAQRTVNPIIVTRRGKIARLESGLTPQEAQIEDLVFLRKVLNRADIPYLLIRNHKNRPVLAINIELRAGLERALAAACATEPMYAKTIDEPGLSPVLVATDGLSQLVDPRVVRLYRRRIAPGGFRYGPAFGVELQFWVYEETVIRCPVENSLSRKVLPRNEITPTNVKLYGYKWPTLDGMFAPHASDVVFDIDMVFSWVDGSDPEFRARRMAQMSQYVVGEGDDAEARIRQIDELKYALRSVNMFAPWIRRIFIATDSTPPPWLAEHPKITIVRAEDHFSDRSALPTYNSHAVESQLHHIPGLSEHFLYSNDDMFFGRPLKASMFFSPGGVTRFIEAKTRIGLGANNPARSGFENAARVNRQLLFDRFGQVITRHLEHTAVPLRKSVLIEMEREFPEEFARTAASPFRSDTDISVTNSFYHYYALMTGRAVPQEKAKVLYVDTTSYAGLRLLPKLRKHRGYDFFCLNDGSFPEVPAAQRAERVVSFLERYFPIPAPWEKIAADVSRRDFAVPRTSAPSEGALEHHHHHH,not soluble
3,SYYHHHHHHLESTSLYKKAGLMSTPLQGIKVLDFTGVQSGPSCTQMLAWFGADVIKIERPGVGDVTRHQLRDIPDIDALYFTMLNSNKRSIELNTKTAEGKEVMEKLIREADILVENFHPGAIDHMGFTWEHIQEINPRLIFGSIKGFDECSPYVNVKAYENVAQAAGGAASTTGFWDGPPLVSAAALGDSNTGMHLLIGLLAALLHREKTGRGQRVTMSMQDAVLNLCRVKLRDQQRLDKLGYLEEYPQYPNGTFGDAVPRGGNAGGGGQPGWILKCKGWETDPNAYIYFTIQEQNWENTCKAIGKPEWITDPAYSTAHARQPHIFDIFAEIEKYTVTIDKHEAVAYLTQFDIPCAPVLSMKEISLDPSLRQSGSVVEVEQPLRGKYLTVGCPMKFSAFTPDIKAAPLLGEHTAAVLQELGYSDDEIAAMKQNHAI,soluble
4,MVTEQEIEAIGKTLVDPKQPLQARFRALFTLRGLGGPDAISWISRGFEDSSALLKHELAYCLGQMRDVRAIPVLVGVLQDTSQEPMVRHEAGEALGAIGNPEVLGLLKQYSTDPVVEVAETCQLAVGRLEWLQQHPGEATCAGPYLSVDPAPPAAEQDVGRLREALLDEARPLFERYRAMFALRNVGGKEAALALAEGLQCGSALFRHEVGYVLGQLQHEAAVPGLAATLARTTESPMVRHECAEALGAIARPACLAALREHIEDPEQVVRESCEVALDMYEYESSQDFQYADGLERLRPPP,soluble
5,MVTQTNPVPVTYPTDAYIPTYLPDDKVSNLADLKKLIEMDSRLDLYLTRRRLDTSINLPTNTKTKDHPPNKEMLRIYVYNTTESSPRSDSGTPADSGKTTWTLRIEGKLLHESANGKHPFSEFLEGVAVDFKRLKPLGMGKKRKRDSSLSLPLNLQQPEYNDQDSTMGDNDNGEDEDSAEAESREEIVDALEWNYDENNVVEFDGIDIKRQGKDNLRCSITIQLRGVDGGKVQYSPNLATLIGMQTGSVNDAVYSIYKYILINNLFVTEQTEAQDGSNDAEDSSNENNNKNGAGDDDGVEGSTPKDKPELGEVKLDSLLQKVLDTNAAHLPLMNVVQTVNKLVSPLPPIILDYTIDLSKDTTYGATTLDVDVSHILHQPQPQPNLQKEEETDAEDTAKLREITKLALQLNSSAQKYQFFHELSLHPRETLTHYLWSSKQNELVLQGDQYFNEDAARTSDIYSNNNNDRSLMGNISLLYSQGRL,soluble
6,MYDFKKINNLRGIERETLRVTDCGNLATSNHPDGLGHKLTNNSITVDFSENLLELITKPHDSIDKAIGELYQLSAFTLDNMHSDEIILNTSMPLSANDNDIQEADFGSSNSGRMKRVYRKGLSARYGKIMQIISGIHYNFSFDKDLISNIATNKQVSISDIYFDVLNNYFEFMWLLPYLFGASPICAKTSVKNKPDYLSVLDDKFYVGEYATSLRMSDLGYTSPAQKDLAISYDNVKAYVKDLIQATDDTFADYKRIGLYNSQGQRIQLNDGILQIENEYYSAIRPKQIAKRGERPACALYNRGVEYVEVRVLDVDPFEPVGISKDTALFVEVMLMTCLDKDAKKYHKDIIKQAKQNLTAVAIQGRNPQLKLKKLDDDSEILLKDYALELFDEIEAVAKKMPKEYLDAVEIQKRKVLDISQTPSAKIIELARQHGYKKFILDISRRVSQQFRSYELPAAIVAKLKDQAGQSVAAEKELVANDKISLDEYINRYYKSSKGCC,not soluble
7,MSLLFLAMAPKPKPWVQTEGPEKKKGRQAGREEDPFRSTAEALKAIPAEKRIIRVDPTCPLSSNPGTQVYEDYNCTLNQTNIENNNNKFYIIQLLQDSNRFFTCWNRWGRVGEVGQSKINHFTRLEDAKKDFEKKFREKTKNNWAERDHFVSHPGKYTLIEVQAEDEAQEAVVKVDRGPVRTVTKRVQPCSLDPATQKLITNIFSKEMFKNTMALMDLDVKKMPLGKLSKQQIARGFEALEALEEALKGPTDGGQSLEELSSHFYTVIPHNFGHSQPPPINSPELLQAKKDMLLVLADIELAQALQAVSEQEKTVEEVPHPLDRDYQLLKCQLQLLDSGAPEYKVIQTYLEQTGSNHRCPTLQHIWKVNQEGEEDRFQAHSKLGNRKLLWHGTNMAVVAAILTSGLRIMPHSGGRVGKGIYFASENSKSAGYVIGMKCGAHHVGYMFLGEVALGREHHINTDNPSLKSPPPGFDSVIARGHTEPDPTQDTELELDGQQVVVPQGQPVPCPEFSSSTFSQSEYLIYQESQCRLRYLLEVHL,soluble
8,MKDPLLNSLIYVSRYYGLANSPEALVNGLPLSDGKLTPFLLPRAAERAGLVAKENRAELEKISSLILPAILVLKGGDSCVLNSINMETREAEVTTLESGMVPISIPLEDLLEQYTGRYFLVKKQFRFDERSPEVLKTKEGHWFWSTLWQSKRIYRD,not soluble
9,MGIMELARIDLSRDDLDKRIGGGIPHGSLIIIEGEESTGKSVLCQRLAYGFLQNRYSVTYVSTQLTTLEFIKQMNSLNYSINKKLLSGALLYIPVYPLIADNKKKDGFLKKVMETRAFYEKDVIIFDSISALIANDASEVNVDDLMAFFKRITALKKIIICTVNPKELPESVLTIIRTSATMLIRTELFTFGGDLKNLAKILKYNMAPGSYQKNIVFRVEPKIGIAVEIASVALEHHHHHH,soluble
10,MKAREILEILNAELLTGEENLDMEFNAACGSDLMSDVMAYVKENVVLLTGLVNPQVIRTAEMMDIKLVVFIRGKRPEEKIIQMAKEKGIAIMTTNDPMFIACGKLYSAGITERGVWD,not soluble
11,MASNRGQLNHELSKLFNELWDADQNRMKSGKDYRISLQGKAGYVPAGSNQARDSASFPLFQFVDEEKLKSRKTFATFISLLDNYEMDTGVAEVVTPEEIAENNNFLDAILETKVMKMAHDYLVRKNQAKPTRNDFKVQLYNIWFQLYSRAPGSRPDSCGFEHVFVGESKRGQEMMGLHNWVQFYLQEKRKNIDYKGYVARQNKSRPDEDDQVLNLQFNWKEMVKPVGSSFIGVSPEFEFALYTIVFLASQEKMSREVVRLEEYELQIVVNRHGRYIGTAYPVLLSTNNPDLY,soluble
12,MESLTLQPIARVDGAINLPGSKSVSNRALLLAALACGKTALTNLLDSDDVRHMLNALSALGINYTLSADRTRCDITGNGGALRAPGALELFLGNAGTAMRPLAAALCLGQNEIVLTGEPRMKERPIGHLVDSLRQGGANIDYLEQENYPPLRLRGGFTGGDIEVDGSVSSQFLTALLMTAPLAPKDTIIRVKGELVSKPYIDITLNLMKTFGVEIANHHYQQFVVKGGQQYHSPGRYLVEGDASSASYFLAAGAIKGGTVKVTGIGRKSMQGDIRFADVLEKMGATITWGDDFIACTRGELHAIDMDMNHIPDAAMTIATTALFAKGTTTLRNIYNWRVKETDRLFAMATELRKVGAEVEEGHDYIRITPPAKLQHADIGTYNDHRMAMCFSLVALSDTPVTILDPKCTAKTFPDYFEQLARMSTPA,not soluble
13,MGVKRKKMGKVAGFTEWTAEDLEAFRARWPIGTAQRLALELYQWTGARCVDVIRLGPQMVGRDGVLTYVQQKTGNPAHVPWTCPAFGLEEQRADLMRCLPVGSPVYMLTEYGKPRTQKGVSQWFSAAAREAGLESRTAHGLRKYRMNALAEHGASVLVMQSWVGHTTLLEVQEYTRRADRRRVISGGHAAALEHHHHHH,not soluble
14,MFPFSPADVPTLSYFDEYRGRRVQCHFCFQEVDGSTLLNHFKDDLRVFRYPSNSCYGIAATGDALRAHLRRLHFYSRPPAVRGFDIEQRRIRSQLKFDEHEHDPDWDMEDVQQENRSKEAPVEAVNSQDATSPAEKVSKIKEDISTSSSRVDPMYSDEDSEDETSDADSSDDENRESEEEEDEY,not soluble
15,MAHHHHHHMAWTCSALSNASMIQNLERAALLSTPAIIASLQRVDRGWFVPDGMRSSAYRDEPLSLGHGATISAPHMHAIMLELLSPFLLSTPGSLPKAVLDIGSGSGYLTAILADICGDGSRVVGVEHVVELQERSLKVVLQHFPSWVNEGRITFINGDGRDISKLFHPHTAMFDVIHVGAAAASVPKDYLEAIKPGGCLVIPVGKENEVQHLHLYTKDEKGTITKKTHGGVSFVPLTSLRHQKNRS,soluble
16,MLYLNQKPEYSKYDIGDYTYSKVGPTIFSWNDETKLKIGKFCSLGEEVVFLLGGEHRADWITTYPFNALFGEGAHITGHPSSKGDIVVGNDVWIGYQSCISSGVTIGNGAIIGARSVITKDVPPYAIVAGNPAKFVRYRFPQETIDKLESLAWWDWDISVIKGAIPLLLSNKIDEFFTSPEKEST,not soluble
17,GPGSMSSCTHPTSALFVDRQNGRTTCTICGDVVTTDQYELDPIFAQGGRQPASGGGLRGLAGSFRPATSYKGTHTGVIHSHSRPTIDKARREMLNISRQLEISEDTVERALGIYKVALNLNAVSGTRPSVLCACLYAACRRERTSHVIYDFSEINGEDPHTILSQMKYICHATHTEVPVIDPSCYVQRFAEQMDLGPQTTDVVVCALKVLRAMQDDWISCGRRPMGVCAAALLVACYVFGISRTPEQVCGMVRLTSNTIGKRLTEFAATPTARLENIDDYQPSHETLPPAFNDSSRKSTEEDVHASMRELSAIFYELVSEAKTSQPATPERCDKWRRFIMKHCELEGITPLEENLDLKGLPPAQQLHILGLPHTKPIPLEEVARSVKREEHRLLVKREASLQNGSDAGGSMSGARQGAVAGLLNNADVSSNGIPLYLLPDESLASSLAQASPAMGYADDGGMHSSSAAVGAASMDSPEQLRWMTDEYTRLLNSNAEVMHLRNDFDFADEDDANGAGGSSGGGAVAPPVSHPTQNQPFSCGLSQLRGGSPPPGTPAEEDPFGFFDRDDEGTRLALEEILYDRERRHALPWEFLVLPRVEEDDCTDILSYLVLDNEERLRRERIGVSLYGEKWKRGRARTDEEIQKLEEARASKRRRRSVIAEPAVDVPTAMERALRGRGAGTVNISQIGELLPGMLEFLEDEPQADWD,not soluble
18,SDVNECLTIPEACKGEMKCINHYGGYLCLPRSAAVINDLHGEGPPPPVPPAQHPNPCPPGYEPDDQDSCVD,soluble
